B1: OR10K2 (parent)
chain: SLARLQQLLFVIFLLLYLFTLGTN
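Note: lentivirally expressed fusions sorted by FACS into six bins by GFP to DsRed ratio, PSI derived from sequencing read proportions per bin multiplied by bin number.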

Variants of: B1
Assay: protein stability index of a GFP-peptide fusion (GPS, HEK-293T) (PSI 1-6); higher = more stable
Conditions: c terminus: a fixed tail appended
Work on SLARLWQLLFVIFLLLYLFTLGTN [Q6W] yielded a protein stability index of 2.2. Work on SLARLYQLLFVIFLLLYLFTLGTN [Q6Y] yielded a protein stability index of 2.6. For SLARLQALLFVIFLLLYLFTLGTN [Q7A], the protein stability index was 1.91. SLARLQCLLFVIFLLLYLFTLGTN [Q7C] gave a protein stability index of 2.1. Variant SLARLQELLFVIFLLLYLFTLGTN [Q7E] has a protein stability index of 2.69. Work on SLARLQFLLFVIFLLLYLFTLGTN [Q7F] yielded a protein stability index of 1.79. Variant SLARLQGLLFVIFLLLYLFTLGTN [Q7G] has a protein stability index of 3.23. Work on SLARLQHLLFVIFLLLYLFTLGTN [Q7H] yielded a protein stability index of 1.9. SLARLQILLFVIFLLLYLFTLGTN [Q7I] gave a protein stability index of 1.99. With SLARLQKLLFVIFLLLYLFTLGTN [Q7K] the protein stability index was 3.27. SLARLQLLLFVIFLLLYLFTLGTN [Q7L] gave a protein stability index of 1.72. In the case of SLARLQMLLFVIFLLLYLFTLGTN [Q7M], the protein stability index is reported as 2.14. Work on SLARLQNLLFVIFLLLYLFTLGTN [Q7N] yielded a protein stability index of 3.21. SLARLQPLLFVIFLLLYLFTLGTN [Q7P] showed a protein stability index of 1.9. SLARLQRLLFVIFLLLYLFTLGTN [Q7R] gave a protein stability index of 2.45. SLARLQSLLFVIFLLLYLFTLGTN [Q7S] gave a protein stability index of 2.11. In the case of SLARLQTLLFVIFLLLYLFTLGTN [Q7T], the protein stability index is reported as 1.74. SLARLQVLLFVIFLLLYLFTLGTN [Q7V] showed a protein stability index of 2.1. With SLARLQWLLFVIFLLLYLFTLGTN [Q7W] the protein stability index was 1.58. In the case of SLARLQYLLFVIFLLLYLFTLGTN [Q7Y], the protein stability index is reported as 1.66. Work on SLARLQQALFVIFLLLYLFTLGTN [L8A] yielded a protein stability index of 1.98. Work on SLARLQQCLFVIFLLLYLFTLGTN [L8C] yielded a protein stability index of 3.24. SLARLQQDLFVIFLLLYLFTLGTN [L8D] showed a protein stability index of 2.99. Variant SLARLQQELFVIFLLLYLFTLGTN [L8E] has a protein stability index of 1.9. In the case of SLARLQQFLFVIFLLLYLFTLGTN [L8F], the protein stability index is reported as 2.88. Variant SLARLQQGLFVIFLLLYLFTLGTN [L8G] has a protein stability index of 2.92. With SLARLQQILFVIFLLLYLFTLGTN [L8I] the protein stability index was 2.4. With SLARLQQKLFVIFLLLYLFTLGTN [L8K] the protein stability index was 3.04. Work on SLARLQQMLFVIFLLLYLFTLGTN [L8M] yielded a protein stability index of 3.83. Work on SLARLQQNLFVIFLLLYLFTLGTN [L8N] yielded a protein stability index of 2.24. SLARLQQPLFVIFLLLYLFTLGTN [L8P] gave a protein stability index of 3.32. In the case of SLARLQQRLFVIFLLLYLFTLGTN [L8R], the protein stability index is reported as 3.34. For SLARLQQSLFVIFLLLYLFTLGTN [L8S], the protein stability index was 2.86. For SLARLQQTLFVIFLLLYLFTLGTN [L8T], the protein stability index was 1.97. For SLARLQQVLFVIFLLLYLFTLGTN [L8V], the protein stability index was 2.17. SLARLQQWLFVIFLLLYLFTLGTN [L8W] showed a protein stability index of 2.53. In the case of SLARLQQYLFVIFLLLYLFTLGTN [L8Y], the protein stability index is reported as 3.36. SLARLQQLCFVIFLLLYLFTLGTN [L9C] gave a protein stability index of 3.51. With SLARLQQLIFVIFLLLYLFTLGTN [L9I] the protein stability index was 2.15. Variant SLARLQQLKFVIFLLLYLFTLGTN [L9K] has a protein stability index of 3.92. In the case of SLARLQQLPFVIFLLLYLFTLGTN [L9P], the protein stability index is reported as 3.06. SLARLQQLWFVIFLLLYLFTLGTN [L9W] gave a protein stability index of 2.84. SLARLQQLLGVIFLLLYLFTLGTN [F10G] showed a protein stability index of 3.07. Variant SLARLQQLLIVIFLLLYLFTLGTN [F10I] has a protein stability index of 4.24. In the case of SLARLQQLLNVIFLLLYLFTLGTN [F10N], the protein stability index is reported as 2.18. For SLARLQQLLQVIFLLLYLFTLGTN [F10Q], the protein stability index was 2.22. With SLARLQQLLRVIFLLLYLFTLGTN [F10R] the protein stability index was 3.34. In the case of SLARLQQLLTVIFLLLYLFTLGTN [F10T], the protein stability index is reported as 3.08. Variant SLARLQQLLVVIFLLLYLFTLGTN [F10V] has a protein stability index of 2.29. SLARLQQLLYVIFLLLYLFTLGTN [F10Y] gave a protein stability index of 2.37. SLARLQQLLFAIFLLLYLFTLGTN [V11A] gave a protein stability index of 1.59. SLARLQQLLFFIFLLLYLFTLGTN [V11F] gave a protein stability index of 2.58. Work on SLARLQQLLFHIFLLLYLFTLGTN [V11H] yielded a protein stability index of 2.61. In the case of SLARLQQLLFMIFLLLYLFTLGTN [V11M], the protein stability index is reported as 3.05. With SLARLQQLLFPIFLLLYLFTLGTN [V11P] the protein stability index was 2.94. Work on SLARLQQLLFSIFLLLYLFTLGTN [V11S] yielded a protein stability index of 1.85. In the case of SLARLQQLLFTIFLLLYLFTLGTN [V11T], the protein stability index is reported as 3.08. Variant SLARLQQLLFYIFLLLYLFTLGTN [V11Y] has a protein stability index of 2.3. In the case of SLARLQQLLFVEFLLLYLFTLGTN [I12E], the protein stability index is reported as 1.78. Work on SLARLQQLLFVHFLLLYLFTLGTN [I12H] yielded a protein stability index of 2.02. Work on SLARLQQLLFVKFLLLYLFTLGTN [I12K] yielded a protein stability index of 3.69. SLARLQQLLFVLFLLLYLFTLGTN [I12L] gave a protein stability index of 2.29. Work on SLARLQQLLFVPFLLLYLFTLGTN [I12P] yielded a protein stability index of 3.58. With SLARLQQLLFVIALLLYLFTLGTN [F13A] the protein stability index was 2.44. In the case of SLARLQQLLFVICLLLYLFTLGTN [F13C], the protein stability index is reported as 3.12. SLARLQQLLFVIGLLLYLFTLGTN [F13G] showed a protein stability index of 1.73. In the case of SLARLQQLLFVIHLLLYLFTLGTN [F13H], the protein stability index is reported as 2.96. With SLARLQQLLFVIKLLLYLFTLGTN [F13K] the protein stability index was 1.43. Variant SLARLQQLLFVIQLLLYLFTLGTN [F13Q] has a protein stability index of 3.04. Work on SLARLQQLLFVIWLLLYLFTLGTN [F13W] yielded a protein stability index of 3.36. With SLARLQQLLFVIYLLLYLFTLGTN [F13Y] the protein stability index was 3.74. SLARLQQLLFVIFFLLYLFTLGTN [L14F] gave a protein stability index of 2.64. In the case of SLARLQQLLFVIFGLLYLFTLGTN [L14G], the protein stability index is reported as 2.6. SLARLQQLLFVIFHLLYLFTLGTN [L14H] gave a protein stability index of 2.31. SLARLQQLLFVIFILLYLFTLGTN [L14I] showed a protein stability index of 2.72. For SLARLQQLLFVIFLQLYLFTLGTN [L15Q], the protein stability index was 2.4. In the case of SLARLQQLLFVIFLTLYLFTLGTN [L15T], the protein stability index is reported as 2.62. With SLARLQQLLFVIFLVLYLFTLGTN [L15V] the protein stability index was 1.48. In the case of SLARLQQLLFVIFLLEYLFTLGTN [L16E], the protein stability index is reported as 3.61. SLARLQQLLFVIFLLIYLFTLGTN [L16I] gave a protein stability index of 2.15. SLARLQQLLFVIFLLSYLFTLGTN [L16S] gave a protein stability index of 3.14. SLARLQQLLFVIFLLTYLFTLGTN [L16T] showed a protein stability index of 3.42. SLARLQQLLFVIFLLYYLFTLGTN [L16Y] showed a protein stability index of 3.45. SLARLQQLLFVIFLLLCLFTLGTN [Y17C] gave a protein stability index of 2.72. For SLARLQQLLFVIFLLLFLFTLGTN [Y17F], the protein stability index was 1.68. For SLARLQQLLFVIFLLLILFTLGTN [Y17I], the protein stability index was 3.43. In the case of SLARLQQLLFVIFLLLLLFTLGTN [Y17L], the protein stability index is reported as 2.34. Variant SLARLQQLLFVIFLLLVLFTLGTN [Y17V] has a protein stability index of 1.57. With SLARLQQLLFVIFLLLWLFTLGTN [Y17W] the protein stability index was 2.13. In the case of SLARLQQLLFVIFLLLYDFTLGTN [L18D], the protein stability index is reported as 1.64. SLARLQQLLFVIFLLLYGFTLGTN [L18G] showed a protein stability index of 2.29. For SLARLQQLLFVIFLLLYIFTLGTN [L18I], the protein stability index was 2.73. For SLARLQQLLFVIFLLLYKFTLGTN [L18K], the protein stability index was 2.07. For SLARLQQLLFVIFLLLYMFTLGTN [L18M], the protein stability index was 2.1.

Source: the supplement of paper PMC10567573
